In patent US20110166081A1 (UNIVERSITY OF IOWA RESEARCH FOUNDATION, published 2011):

Target: T1, mouse integrin alpha7beta1 from digitonin-solubilized skeletal muscle (mouse, UniProt Q61738 34-1135; P09055 21-801, limits assumed)
T1 construct: also called integrin α7β1; alpha7beta1 integrin
Assay: WGA lectin affinity chromatography and sucrose gradient fractionation of digitonin-solubilized muscle, immunoblot
Excerpt: Characterization of skeletal muscle dystroglycan and integrin α7 complexes. Sucrose gradient fractionation of the DGC and the integrin α7 complex from wild-type (A, C), DG-deficient (B) and integrin α7-null (D) skeletal muscle solubilized with digitonin. Glycoprotein preparations enriched by WGA-chromatography were fractionated by sucrose gradient centrifugation. Equal volumes of fractions were loaded on an SDS-PAGE gel. The blot generated from this was probed with antibodies against: integrin α7 (α7), integrin β1(β1), α-DG (α-DG), α-sarcoglycan (α-SG), β-sarcoglycan (β-SG) and γ-sarcoglycan (γ-SG).
Lectin affinity chromatography and sucrose gradient fractionation. Total muscle homogenates in TBS (50 mM Tris-Cl pH 7.4, 150 mM NaCl) were solubilized with 1% digitonin. After centrifugation at 140,000×g for 37 min, solubilized proteins in the supernatant were mixed with wheat germ agglutinin (WGA)-agarose beads (Vector Laboratories) and rotated end-over-end at 4° C. for 2 hours. WGA-bound proteins were eluted with TBS containing 0.3 M N-acetyl-D-glucosamine and 0.1% digitonin. The eluant was applied to a 5-30% sucrose gradient and centrifuged at 215,000×g for 90 min. Fractions (1 ml) were collected from the top of the gradient and analyzed by SDS-PAGE.

T1 sequence (Q61738 other isoform, or with tags, fused parts or gaps limits assumed, chain 1 of 2): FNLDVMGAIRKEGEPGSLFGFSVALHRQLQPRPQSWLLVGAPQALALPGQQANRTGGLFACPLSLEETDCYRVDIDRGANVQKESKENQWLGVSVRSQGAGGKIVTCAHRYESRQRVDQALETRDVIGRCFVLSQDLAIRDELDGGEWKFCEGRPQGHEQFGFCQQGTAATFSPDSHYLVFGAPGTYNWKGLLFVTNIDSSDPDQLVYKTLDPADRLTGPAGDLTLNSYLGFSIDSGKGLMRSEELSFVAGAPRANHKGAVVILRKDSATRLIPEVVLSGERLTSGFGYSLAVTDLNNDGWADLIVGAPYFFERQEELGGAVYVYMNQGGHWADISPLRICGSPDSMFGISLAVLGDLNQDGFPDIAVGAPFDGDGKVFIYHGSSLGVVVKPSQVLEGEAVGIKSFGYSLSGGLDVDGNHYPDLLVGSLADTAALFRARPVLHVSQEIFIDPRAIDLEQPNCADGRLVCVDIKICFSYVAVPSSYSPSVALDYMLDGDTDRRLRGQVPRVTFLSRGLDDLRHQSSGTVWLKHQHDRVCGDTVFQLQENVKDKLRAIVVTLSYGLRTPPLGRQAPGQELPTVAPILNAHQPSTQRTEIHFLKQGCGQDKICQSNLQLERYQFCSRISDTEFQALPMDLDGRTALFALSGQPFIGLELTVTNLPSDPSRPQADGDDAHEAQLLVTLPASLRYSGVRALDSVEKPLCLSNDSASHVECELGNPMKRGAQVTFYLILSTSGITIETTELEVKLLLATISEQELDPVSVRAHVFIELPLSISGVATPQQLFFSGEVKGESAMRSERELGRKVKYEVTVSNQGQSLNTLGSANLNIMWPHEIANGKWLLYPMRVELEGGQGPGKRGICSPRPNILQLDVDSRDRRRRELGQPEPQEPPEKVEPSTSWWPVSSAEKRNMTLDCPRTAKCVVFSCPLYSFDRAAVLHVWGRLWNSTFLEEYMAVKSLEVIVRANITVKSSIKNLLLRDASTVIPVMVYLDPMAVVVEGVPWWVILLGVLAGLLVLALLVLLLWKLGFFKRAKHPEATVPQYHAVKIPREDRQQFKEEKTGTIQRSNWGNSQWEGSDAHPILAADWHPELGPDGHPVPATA
T1 sequence (P09055 other isoform, or with tags, fused parts or gaps limits assumed, chain 2 of 2): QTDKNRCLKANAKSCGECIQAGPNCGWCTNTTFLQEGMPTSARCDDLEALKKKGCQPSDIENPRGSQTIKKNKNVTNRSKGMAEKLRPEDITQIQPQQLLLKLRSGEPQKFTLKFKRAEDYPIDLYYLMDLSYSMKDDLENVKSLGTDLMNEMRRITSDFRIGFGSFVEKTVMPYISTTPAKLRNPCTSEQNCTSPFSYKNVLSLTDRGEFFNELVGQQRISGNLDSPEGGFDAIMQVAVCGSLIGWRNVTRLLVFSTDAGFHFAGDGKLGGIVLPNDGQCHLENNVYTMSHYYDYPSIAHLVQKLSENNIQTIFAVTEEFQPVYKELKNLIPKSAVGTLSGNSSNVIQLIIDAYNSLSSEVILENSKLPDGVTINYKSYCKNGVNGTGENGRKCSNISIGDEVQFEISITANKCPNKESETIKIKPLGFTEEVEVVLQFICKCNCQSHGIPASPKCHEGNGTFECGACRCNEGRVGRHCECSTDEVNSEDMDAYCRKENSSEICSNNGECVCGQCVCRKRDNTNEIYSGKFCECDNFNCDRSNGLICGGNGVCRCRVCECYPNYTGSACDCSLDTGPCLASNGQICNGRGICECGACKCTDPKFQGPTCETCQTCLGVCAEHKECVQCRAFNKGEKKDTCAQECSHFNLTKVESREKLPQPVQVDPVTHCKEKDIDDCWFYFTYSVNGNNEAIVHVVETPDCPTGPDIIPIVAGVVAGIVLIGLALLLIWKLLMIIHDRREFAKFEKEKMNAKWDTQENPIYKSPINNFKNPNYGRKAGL

- binding result: no binding
B1: mouse dystroglycan from digitonin-solubilized skeletal muscle (receptor)
chain 1: HWPSEPSEAVRDWKNQLEASMHSVLSDFQEAVPTVVGIPDGTAVVGRSFRVSIPTDLIASSGEIIKVSAAGKEALPSWLHWDPHSHILEGLPLDTDKGVHYISVSAARLGANGSHVPQTSSVFSIEVYPEDHNEPQSVRAASSDPGEVVPSACAADEPVTVLTVILDADLTKMTPKQRIDLLNRMQSFSEVELHNMKLVPVVNNRLFDMSAFMAGPGNAKKVVENGALLSWKLGCSLNQNSVPDIRGVETPAREGAMSAQLGYPVVGWHIANKKPTLPKRLRRQIHATPTPVTAIGPPTTAIQEPPSRIVPTPTSPAIAPPTETMAPPVRDPVPGKPTVTIRTRGAIIQTPTLGPIQPTRVSEAGTTVPGQIRPTLTIPGYVEPTAVITPPTTTTKKPRVSTPKPATPSTDSSTTTTRRPTKKPRTPRPVPRVTTKAPITRLETASPPTRIRTTTSGVPRGGEPNQRPELKNHIDRVDAWVGTYFEVKIPSDTFYDNEDTTTDKLKLTLKLREQQLVGEKSWVQFNSNSQLMYGLPDSSHVGKHEYFMHATDKGGLSAVDAFEIHVHKRPQGDKAPARFKARLAGDPAPVVNDIHKKIALVKKLAFAFGDRNCSSITLQNITRG
chain 2: SIVVEWTNNTLPLEPCPKEQIIGLSRRIADENGKPRPAFSNALEPDFKALSIAVTGSGSCRHLQFIPVAPPSPGSSAAPATEVPDRDPEKSSEDDVYLHTVIPAVVVAAILLIAGIIAMICYRKKRKGKLTLEDQATFIKKGVPIIFADELDDSKPPPSSSMPLILQEEKAPLPPPEYPNQSMPETTPLNQDTVGEYTPLRDEDPNAPPYQPPPPFTAPMEGKGSRPKNMTPYRSPPPYVPP
notes: Native protein, WGA-enriched, within the dystrophin-glycoprotein complex; also called DG; DGC
